# From publication PMC10090120, “Cryo-EM structures of mitochondrial ABC transporter ABCB10 in apo and biliverdin-bound form” (Nature Communications, 2023)
# Biological target: the molecule itself
# Test: cryo-EM structure; ABCB10 E659Q at ~4 mg/mL in 50 mM HEPES pH 7.5, 150 mM NaCl, 0.005% GDN, 0.0005% CHS, incubated with 1 mM biliverdin for 30 min and vitrified; BV-free (apo) and BV-bound maps from a single data set; C2 symmetry
protein,measurement,value
"human ABCB10 (residues A152-A738) E659Q mutant (domain or fragment, UniProt Q9NRK6 152-738, looked up, E659Q in the Walker-B motif; The vector adds a C-terminal TEV protease site before the FLAG and 10xHis tags; no cleavage is described; The model of ABCB10-apo covers residues 156-724 (528-532 missing), that of ABCB10-BV residues 154-724 (629-631 missing); also called ABCB10 E659Q; ABCB10-apo) AGLPEARKLLGLAYPERRRLAAAVGFLTMSSVISMSAPFFLGKIIDVIYTNPTVDYSDNLTRLCLGLSAVFLCGAAANAIRVYLMQTSGQRIVNRLRTSLFSSILRQEVAFFDKTRTGELINRLSSDTALLGRSVTENLSDGLRAGAQASVGISMMFFVSPNLATFVLSVVPPVSIIAVIYGRYLRKLTKVTQDSLAQATQLAEERIGNVRTVRAFGKEMTEIEKYASKVDHVMQLARKEAFARAGFFGATGLSGNLIVLSVLYKGGLLMGSAHMTVGELSSFLMYAFWVGISIGGLSSFYSELMKGLGAGGRLWELLEREPKLPFNEGVILNEKSFQGALEFKNVHFAYPARPEVPIFQDFSLSIPSGSVTALVGPSGSGKSTVLSLLLRLYDPASGTISLDGHDIRQLNPVWLRSKIGTVSQEPILFSCSIAENIAYGADDPSSVTAEEIQRVAEVANAVAFIRNFPQGFNTVVGEKGVLLSGGQKQRIAIARALLKNPKILLLDQATSALDAENEYLVQEALDRLMDGRTVLVIAHRLSTIKNANMVAVLDQGKITEYGKHEELLSKPNGIYRKLMNKQSFISA",stoichiometry N,2
